Tested on: T cells of IDDM patients and healthy blood-donors
Assay: Proliferative T cell response of IDDM patients and healthy blood donors
Type: cell-based, human
Conditions: for Incidence of T-cell responses: positive = SI of 3 or greater

B1: hsp60: whole recombinant hsp60; human 60 kDa heat shock protein (protein, UniProt P10809 27-573, looked up)
60 kDa heat shock protein, …: AKDVKFGADARALMLQGVDLLADAVAVTMGPKGRTVIIEQSWGSPKVTKDGVTVAKSIDLKDKYKNIGAKLVQDVANNTNEEAGDGTTTATVLARSIAKEGFEKISKGANPVEIRRGVMLAVDAVIAELKKQSKPVTTPEEIAQVATISANGDKEIGNIISDAMKKVGRKGVITVKDGKTLNDELEIIEGMKFDRGYISPYFINTSKGQKCEFQDAYVLLSEKKISSIQSIVPALEIANAHRKPLVIIAEDVDGEALSTLVLNRLKVGLQVVAVKAPGFGDNRKNQLKDMAIATGGAVFGEEGLTLNLEDVQPHDLGKVGEVIVTKDDAMLLKGKGDKAQIEKRIQEIIEQLDVTTSEYEKEKLNERLAKLSDGVAVLKVGGTSDVEVNEKKDRVTDALNATRAAVEEGIVLGGGCALLRCIPALDSLTPANEDQKIGIEIIKRTLKIPAMTIAKNAGVEGSLIVEKIMQSSSEVGYDAMAGDFVNMVEKGIIDPTKVVRTALLDAAGVASLLTTAEVVVTEIPKEEKDPGMGAMGGMGGGMGGGMF
- Incidence of T-cell responses (Healthy blood donors (n=14)): 21%
- T-cell responses (stimulation index) (IDDM patient 1. patient eight, 3.5 months since diagnosis): + (SI values of 3 or greater were considered to be positive)
- T-cell responses (stimulation index) (IDDM patient 3. H, 6 months since diagnosis): + (SI values of 3 or greater were considered to be positive)
- T-cell responses (stimulation index) (IDDM patient 4. patient seven, 3 weeks since diagnosis): + (SI values of 3 or greater were considered to be positive)
- T-cell responses (stimulation index) (IDDM patient 4. patient seven, 5 weeks since diagnosis): + (SI values of 3 or greater were considered to be positive)
- T-cell responses (stimulation index) (IDDM patient 5. SD, 6 weeks since diagnosis): + (SI values of 3 or greater were considered to be positive)
- T-cell responses (stimulation index) (IDDM patient 6. P, 4 weeks since diagnosis): - (SI values of 3 or greater were considered to be positive)
- T-cell responses (stimulation index) (IDDM patient 7. G, 5 weeks since diagnosis): + (SI values of 3 or greater were considered to be positive)
- T-cell responses (stimulation index) (IDDM patient 7. G, 7 weeks since diagnosis): + (SI values of 3 or greater were considered to be positive)
- T-cell responses (stimulation index) (IDDM patient 9. patient two, 2 weeks since diagnosis): + (SI values of 3 or greater were considered to be positive)
- T-cell responses (stimulation index) (IDDM patient 10. T, 4 weeks since diagnosis): + (SI values of 3 or greater were considered to be positive)
- T-cell responses (stimulation index) (IDDM patient 12. patient nine, 6 weeks since diagnosis): - (SI values of 3 or greater were considered to be positive)
- T-cell responses (stimulation index) (IDDM patient 15. patient five, 3 weeks since diagnosis): - (SI values of 3 or greater were considered to be positive)
- T-cell responses (stimulation index) (IDDM patient 16. patient one, 2 months since diagnosis): + (SI values of 3 or greater were considered to be positive)
- T-cell responses (stimulation index) (IDDM patient 17. patient six, 4 weeks since diagnosis): - (SI values of 3 or greater were considered to be positive)
- T-cell responses (stimulation index) (IDDM patient 18. patient four, 4 weeks since diagnosis): + (SI values of 3 or greater were considered to be positive)
- T-cell responses (stimulation index) (IDDM patient 19. A, 11.5 years since diagnosis): + (SI values of 3 or greater were considered to be positive)
- T-cell responses (stimulation index) (IDDM patient 20. N, 7.5 years since diagnosis): + (SI values of 3 or greater were considered to be positive)
- T-cell responses (stimulation index) (IDDM patient 21. A, 5.7 years since diagnosis): + (SI values of 3 or greater were considered to be positive)
- Incidence of T-cell responses (IDDM patients (n=21)): 86%
- T-cell responses (stimulation index) (healthy blood donor 1): - (SI values of 3 or greater were considered to be positive)
- T-cell responses (stimulation index) (healthy blood donor 2): - (SI values of 3 or greater were considered to be positive)
- T-cell responses (stimulation index) (healthy blood donor 4): - (SI values of 3 or greater were considered to be positive)
- T-cell responses (stimulation index) (healthy blood donor 5): + (SI values of 3 or greater were considered to be positive)
- T-cell responses (stimulation index) (healthy blood donor 6): - (SI values of 3 or greater were considered to be positive)
- T-cell responses (stimulation index) (healthy blood donor 7): - (SI values of 3 or greater were considered to be positive)
- T-cell responses (stimulation index) (healthy blood donor 8): - (SI values of 3 or greater were considered to be positive)
- T-cell responses (stimulation index) (healthy blood donor 9): - (SI values of 3 or greater were considered to be positive)
- T-cell responses (stimulation index) (healthy blood donor 10): - (SI values of 3 or greater were considered to be positive)
- T-cell responses (stimulation index) (healthy blood donor 11): + (SI values of 3 or greater were considered to be positive)
- T-cell responses (stimulation index) (healthy blood donor 12): - (SI values of 3 or greater were considered to be positive)
- T-cell responses (stimulation index) (healthy blood donor 13): + (SI values of 3 or greater were considered to be positive)
- T-cell responses (stimulation index) (healthy blood donor 14): - (SI values of 3 or greater were considered to be positive)

— patent publication US6180103A, “Peptide p277 analogs, and pharmaceutical compositions comprising them for treatment or diagnosis of diabetes” (Yeda Research and Development Co., Ltd., priority 1994, dated 2001)
